Experimental data reported in the DeepSol protein solubility set.

test: soluble on expression in E. coli; label from the status in PepcDB or PDB records

Row | Sequence | soluble on expression in E. coli
1 | MSLKTIHITHPHHLIKEEQAKSVMALGYFDGVHLGHQKVIGTAKQIAEEKGLTLAVMTFHPHPSHVLGRDKEPKDLITPLEDKINQIEQLGTEVLYVVKFNEVFASLSPKQFIDQYIIGLNVQHAVAGFDFTYGKYGKGTMKTMPDDLDGKAGCTMVEKLTEQDKKISSSYIRTALQNGDVELANVLLGQPYFIKGIVIHGDKRGRTIGFPTANVGLNNSYIVPPTGVYAVKAEVNGEVYNGVCNIGYKPTFYEKRPEQPSIEVNLFDFNQEVYGAAIKIEWYKRIRSERKFNGIKELTEQIEKDKQEAIRYFSNLRKEGGSHHHHHH | soluble
2 | MKNPQSKADDILQCARTLIIRGGYNSFSYADISQVVGIRNASIHHHFPSKSDLVCKLVSQYRQEAEAGIAELEKNISDPLEQLRAYIGYWEGCIADATHPFCVCALLASEIPVLPETVVLEVRAHFRSLSDWLTAVLERGIAQGRLVLTGTARANAEIFMATVHGAMLSARAHGDAATFGAITRPMLERITA | soluble
3 | GSDKIHHHHHHMLTMKDIIRDGHPTLRQKAAELELPLTKEEKETLIAMREFLVNSQDEEIAKRYGLRSGVGLAAPQINISKRMIAVLIPDDGSGKSYDYMLVNPKIVSHSVQEAYLPTGEGCLSVDDNVAGLVHRHNRITIKAKDIEGNDIQLRLKGYPAIVFQHEIDHLNGVMFYDHIDKNHPLQPHTDAVEV | soluble
4 | MKTIRRYDVNEDRGHTGLVEAGDFYYLNYCVGNVGQDIESQINGAFDEMERRLALVGLTLDAVVQMDCLFRDVWNIPVMEKMIKERFNGRYPARKSIQTEFAHHGGPQGLLFQVDGVAYSKHISMT | soluble
5 | MAELHIIGQIIGATGFPQNSLFCKWGVHTGGAWRLLSGLREGQTQVDMPQTGDMAYWSHPIDLHYTTKGLQGWPKLHLQVWHQDSFGRCQLYGYGYIHVPSSPGQHRLQCVTWRPLGSWQDQLSEMFVGGGPQLRSPDLIYSGADRYRLHTVGMGTVELELCIILRHFDRYGVES | not soluble
6 | MGSDKIHHHHHHMEKKPLYHFMPGTMTWSFGTPGCNFKCANRQNWAISQMGQDKSIPLATPEAIVRNAMNTGCSSISCTYTEPTIFAEYALDVMQLARQTGLRNIWISNGYLSPLCLKTVTPWLDAINVGLQSMDDAFYRRVCGARLDPVLDSLRLIQESGMHLEITTLVIPGHSSDPAMLERLAGFIAHDLGTGVPWHIIPFYPEISWKMQDTPPTPAESIEQAFEIGRKAGLSFIYAGNAHSDTFCDQCSARLVGRKASPFGDYRIERFDTGGRCPVCHAPSPMRD | not soluble
7 | MSLGKRLKEARQKAGYTQKEAAEKLNIGNNNLSNYERDYRDPDTDTLLKLSNLYNVSTDYLLGKDEVSKKNETDLLNKTINEAIQELKDEDTLLFMNDGEFDEETARLVKKALKNGIKFIDELKKKE | not soluble
8 | MSTAFNNIRQGLSEAIAHAKGNVHGVRVHRPRQVDVKAVRAKVGMTQEQFAAQFGFSPATLRHWERGDRTPRGAALVLLNVIDRNPQAVIEALA | not soluble
9 | MKKREVIASVKDEKLVKKRRNEMIKGAISLFKQKGFHQTTTREIAKASGFSIGTLYEYIRKKEDVLYLVCDRIYDEVRERTEQDLGAHHGTIEGLRRAIAHYFRVVDELDDEVLVMYQEVKALSKESLPYVLNKELDMAAIFEHILRACVENGALQLSESEIRLFAHNIVVLGQMWAFRRWVLRKMYTLDEYIELQTEFLLKGIMEKQRV | not soluble
10 | MKPIDRFSYLKNNRVSQDTSSLVQCYLPIIGQEALSLYLYTISFWDNGRKEYLFSSILNHLNFGMDRLIKSLKILSAFNLLTLYQKGDVYQLALHAPLSSQDFLGHPVYRRLLEKKIGDVAVEDLKVESADGEEIPVSLNQVFPELAELGSQEDLGLKKKVANDFDLEHFRQLMARDGLRFADEQSDVLNLFAIAEEKKWTWFETYQLAKSTAVSQVISTKRMREKIAQKPVSSDFSLKEATIIKEAKSKTALQFLAEIKQTRKGTITQTERELLQQMAGLGLLDEVINIILLLTFNKVDSANINEKYAMKVANDYAYQKIHSAEEAVLRIRDRGQKAKTQKQNQTAPEKTNVPKWSNPEYKNETSEETRLELERKKQELLARLEKGGD | not soluble
11 | MSPLPPPPDIQHEFDKNQDPHETNLALRRLYPQIRERENERHIPRRWDLRQASSYLDISQSGYGVTFKKNVTVAEDKDPAGVVRADAFIQQCIGVYYFEVRILEGHSGCMGIGLSKKDCDLNRMPGWDPGCFGYHGDDGNFFLASGVGQAYGPKFGPGDVIGCGIDTFYHYVFFTKNGKHLGIAHTSPTALKELYPTVGFKTRGEKLVANFGVKPFEFDFEAYRQHLMNKKIHLLENIKMPENFGKQMNRIVSSFLGTTGALATLQKFEETTKPEVPIDHEYYAQRKEITDMILKAARGAEIHEKIEKYFPGLVEDDANVHLLILCLRYIDLANTLHEPPNCFTNSTTGRSPSPTEIRARPPKLLKGSQCKTTKRTREAQRRSANSQVHTPPPVRLTNAKATEELYLKDAKIERFYIDQDTEEEMLHIDGVSMPTKMFVELEKSGQYRKLNYILKMGREIMKVAGEMRGNIAPEARKVVEIATSMVSSPERPAKHPLSFALRRFIANSVVDMICYYVHHKREGKSTKRPRGTSTGEIPGSSSLRMFSELRNLFTGWKGLHIDYSTNDKKMAGIHFVRKMILEEPNFNEKEIIYTDEPMELAHERPDPPPREIIRQQRNEFQF | not soluble
12 | MSLGKALEIDLGNRLQALDIDGPTREILRECRPIIEKIIDEAVLDSYNKILAYPEVRDAYAGMKIEDACQAQRTHWIDDVFAGTFAEEQIRNGVEIFSKRQRQGLSLRWYFCFYSNILRCMIAAVYPQYRRDKEKLQRVIGALTRTVMFELEIASTAYMHSAQEQVAVALNDAAGQFEREGHHHHHH | soluble
13 | MGSDKIHHHHHHMSLSHNRHKKLIEMVQTDGEVRIRDLMVHFNVSEETARRDIKQLEQDGLVVRVHGGAVATQQPKLLTISSRAISELAEKNVIAEIALGLLKPGQNLFFGGGSTVLALARRISMLPEMRIVTNMVDTAIAASEGRRHRVVLLGGDFNGDYRVVTGFAALRTLREQQIDIAFIGVNAVHPTLGVFDHEQGGQELAATLAEQARKITVLADHSKFGRSARYRTLPHSAIATIITDQQPEPHVLTAIEGAGADVLYPPQNPS | not soluble
14 | MGSDKIHHHHHHMSNEQLADLTQPQRDRLAFVELRVRFIGEIRRQDLVTRFGIQSAAASRDLALYKELAPGNIDYDSKGKSYVLGPDFRPVFDFPPERVLSWLTQGFGDGEPMRLKAWVASESPSRLTHPDLDVLASVTRAIHQECPLGIEYHSISSGRTEREIVPFALIDNGLRWHVRAFDRKSQEFRDFVITRIKRPVLIRDAEVQSHERSDQDIQWTRIVELEMVPHPDQPRPEITEMDYGMVRGSLRMKLRAATAGYILRQWSVDCSPDHSLRGYEFRLWLKDHLALYGVKNAVLAPGYRSPDQNKGEQ | not soluble
15 | KGDWAWQAGFSLSGVKNEITDMKGVEDIKDNTINREGEAIGSYYGLKAIGIYRTQADLDRVNANGQKILQNNQEPQLGDIMYEDIDNNGNINDADRTIIGNPFPKMQYSFNLGFSYKDFDVNTFWQGIAGVYRYNWDETTISNGGNKTSRWLDRWSESNPNGSMPRLGGTINNNYSSFWLTKGDYLRLKNLEIGYTFRQREFLTKLGVQSIRLYLAGTNLLTFTSLDDYDPEKLSTDSRNDVHPNTRTYSFGVNVKF | not soluble
16 | MDSSQVPNPVLVLVGSPRRDGNSALLAQAVAEGARQSGAAATLLFLDDYIAGFLTDEKEADARRPDDRYGELFFDHFLPARAVVLCTPVYWYGMSAQAKAFFDRSFTYYSASHPRHAEVLRRMTGKRLALAVSSEETYPGAALGIVHQLQEFTRYTHSQFVGMVHGAGNRRGEVAHDPRRPLQAAHRLGHDLLSLPYSDYRIDSPRDHQVWPGAPA | not soluble
17 | MRRQRRSITDIICENCNYLPTKRSRNKRKPIPKESDVKTFNYTAHLWDIRWLRERARKTR | not soluble
18 | SLTTTEVVMENVTAFWEEGGTPVLKDINFKIERGQLLAVAGSTGAGKTSLLMMIMGELEPSEGKIKHSGRISFCSQFSWIMPGTIKENIIFGVSYDEYRYRSVIKACQLEEDISKFAEKDNIVLGEGGITLSGGQRARISLARAVYKDADLYLLDSPFGYLDVLTEKEIFESCVCKLMANKTRILVTSKMEHLKKADKILILHEGSSYFYGTFSELQNLQPDFSSKLGPSAQLKKKLQALKKKNAQLKWKLQALKKKLAQ | soluble
